Source: US20050282743A1, “Molecular interactions in cells” (Arbor Vita Corporation, priority 2001, published 2005)

Legend:
[1] = target: T1, GST-KIAA1719 PDZ domain 6 (Homo sapiens (Human)), Q9C0E4; test: G assay titration, PDZ 5 ug/ml
T1 chain: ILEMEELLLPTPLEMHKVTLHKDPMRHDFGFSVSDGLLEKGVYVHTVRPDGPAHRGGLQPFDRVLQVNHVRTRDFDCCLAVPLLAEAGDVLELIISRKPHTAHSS

[2] = target: T2, GST-PICK1 PDZ domain 1 (Bos taurus (Bovine)), Q2T9M1; test: G assay titration, PDZ 5 ug/ml
T2 chain: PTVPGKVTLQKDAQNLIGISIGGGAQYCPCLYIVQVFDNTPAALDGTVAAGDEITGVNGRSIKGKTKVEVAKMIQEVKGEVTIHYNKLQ

[3] = target: T3, GST-MINT1 PDZ domains 1, 2, Q02410; test: G assay titration, PDZ 5 ug/ml
T3 chain: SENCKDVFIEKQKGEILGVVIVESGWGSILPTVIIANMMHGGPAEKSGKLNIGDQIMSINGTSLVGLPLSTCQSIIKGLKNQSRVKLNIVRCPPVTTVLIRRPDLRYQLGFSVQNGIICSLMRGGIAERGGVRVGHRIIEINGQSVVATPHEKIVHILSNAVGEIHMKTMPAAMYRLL

[4] = target: T4, GST-MUPP1 PDZ domain 7 (Homo sapiens (Human)), O75970; test: G assay titration, PDZ 5 ug/ml
T4 chain: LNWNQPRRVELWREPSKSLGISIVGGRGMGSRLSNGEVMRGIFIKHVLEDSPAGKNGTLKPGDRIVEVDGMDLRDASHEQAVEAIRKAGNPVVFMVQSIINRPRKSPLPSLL

[5] = target: T5, GST-INADL PDZ domain 3 (Homo sapiens (Human)), Q8NI35; test: G assay titration, PDZ 5 ug/ml
T5 chain: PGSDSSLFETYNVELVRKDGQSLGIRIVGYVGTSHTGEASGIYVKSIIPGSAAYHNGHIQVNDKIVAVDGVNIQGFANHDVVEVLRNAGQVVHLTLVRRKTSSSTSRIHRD

[6] = target: T6, GST-AIPC PDZ domain 1 (Homo sapiens (Human)), O15018; test: G assay titration, PDZ 5 ug/ml
T6 chain: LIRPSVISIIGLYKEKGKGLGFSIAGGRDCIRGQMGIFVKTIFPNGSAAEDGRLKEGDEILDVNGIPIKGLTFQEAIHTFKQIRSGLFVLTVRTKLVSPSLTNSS

[7] = target: T7, GST-ZO-1 PDZ domain 2 (Rattus norvegicus (Rat)), A0A0G2; test: G assay titration, PDZ 5 ug/ml
T7 chain: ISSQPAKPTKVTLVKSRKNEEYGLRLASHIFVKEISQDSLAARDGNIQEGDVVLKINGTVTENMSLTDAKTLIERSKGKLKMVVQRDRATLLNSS

[8] = target: T8, GST-KIAA1719 PDZ domain 5 (Homo sapiens (Human)), Q9C0E4; test: G assay titration, PDZ 5 ug/ml
T8 chain: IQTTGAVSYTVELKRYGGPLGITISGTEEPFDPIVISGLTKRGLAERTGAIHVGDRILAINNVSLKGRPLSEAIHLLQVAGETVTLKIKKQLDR

[9] = target: T9, GST-FLJ 10324 PDZ domain 1 [GST: P08515]; test: G assay titration, PDZ 5 ug/ml
T9 chain: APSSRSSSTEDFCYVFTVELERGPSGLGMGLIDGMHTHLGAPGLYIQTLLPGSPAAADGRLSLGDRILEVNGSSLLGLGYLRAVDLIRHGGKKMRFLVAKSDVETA

[10] = target: T10, GST-GRIP 1 PDZ domain 6 (Mus musculus (Mouse)), Q925T6; test: G assay titration, PDZ 5 ug/ml
T10 chain: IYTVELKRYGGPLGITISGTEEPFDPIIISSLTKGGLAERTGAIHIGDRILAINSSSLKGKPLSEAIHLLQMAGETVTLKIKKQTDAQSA

[11] = target: T11, GST-MUPP1 PDZ domain 3 (Homo sapiens (Human)), O75970; test: G assay titration, PDZ 5 ug/ml
T11 chain: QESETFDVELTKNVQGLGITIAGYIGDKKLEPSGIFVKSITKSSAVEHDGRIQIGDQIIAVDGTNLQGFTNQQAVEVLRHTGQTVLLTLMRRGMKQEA

[12] = target: T12, GST-MUPP1 PDZ domain 9 (Homo sapiens (Human)), O75970; test: G assay titration, PDZ 5 ug/ml
T12 chain: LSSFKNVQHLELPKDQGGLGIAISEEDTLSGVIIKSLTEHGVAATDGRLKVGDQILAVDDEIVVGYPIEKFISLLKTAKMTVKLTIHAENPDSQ

[13] = target: GST-PAR3 PDZ domain 3 (Homo sapiens (Human)), Q8TEW0; test: G assay titration, PDZ 1 ug/ml
GST-PAR3 PDZ domain 3 (Homo sapiens (Human)), Q8TEW0, sequence (Q8TEW0 579-681): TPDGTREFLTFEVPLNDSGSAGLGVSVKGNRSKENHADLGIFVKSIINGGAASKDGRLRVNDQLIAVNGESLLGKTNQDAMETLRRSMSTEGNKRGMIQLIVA

[14] = target: T1, GST-KIAA1719 PDZ domain 6 (Homo sapiens …); test: G' assay; also: key of the grades not given here
[15] = target: T2, GST-PICK1 PDZ domain 1 (Bos taurus …); test: G' assay; also: key of the grades not given here
[16] = target: GST-PAR3 PDZ domain 3 (Homo sapiens (Human)), Q8TEW0; test: G' assay; also: key of the grades not given here
[17] = target: T3, GST-MINT1 PDZ domains 1, 2, Q02410; test: G' assay; also: key of the grades not given here
[18] = target: T4, GST-MUPP1 PDZ domain 7 (Homo sapiens …); test: G' assay; also: key of the grades not given here
[19] = target: T5, GST-INADL PDZ domain 3 (Homo sapiens …); test: G' assay; also: key of the grades not given here
[20] = target: T6, GST-AIPC PDZ domain 1 (Homo sapiens …); test: G' assay; also: key of the grades not given here
[21] = target: T7, GST-ZO-1 PDZ domain 2 (Rattus …); test: G' assay
[22] = target: T8, GST-KIAA1719 PDZ domain 5 (Homo sapiens …); test: G' assay
[23] = target: T9, GST-FLJ 10324 PDZ domain 1 [GST: P08515]; test: G' assay
[24] = target: T10, GST-GRIP 1 PDZ domain 6 (Mus musculus …); test: G' assay
[25] = target: T11, GST-MUPP1 PDZ domain 3 (Homo sapiens …); test: G' assay
[26] = target: T12, GST-MUPP1 PDZ domain 9 (Homo sapiens …); test: G' assay
[27] = target: T13, GST-KIAA0380 PDZ domain 1 (Homo sapiens (Human)), O15085; test: G' assay; also: key of the grades not given here
T13 chain: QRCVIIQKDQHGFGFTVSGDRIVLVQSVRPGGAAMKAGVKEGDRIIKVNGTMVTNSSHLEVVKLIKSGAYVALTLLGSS

[28] = target: GST-CARD14 PDZ domain 1 (Homo sapiens (Human)), Q9BXL6; test: G' assay; also: key of the grades not given here
GST-CARD14 PDZ domain 1 (Homo sapiens (Human)), Q9BXL6, sequence (Q9BXL6 565-664): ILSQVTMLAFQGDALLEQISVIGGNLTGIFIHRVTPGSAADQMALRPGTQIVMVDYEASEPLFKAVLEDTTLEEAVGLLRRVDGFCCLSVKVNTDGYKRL

[29] = target: T14, GST-KIAA1719 PDZ domain 3 (Homo sapiens (Human)), Q9C0E4; test: G' assay; also: key of the grades not given here
T14 chain: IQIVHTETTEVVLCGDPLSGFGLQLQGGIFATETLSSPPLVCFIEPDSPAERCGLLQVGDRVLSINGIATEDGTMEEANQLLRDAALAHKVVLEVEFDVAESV

[30] = target: T15, GST-GRIP 1 PDZ domain 5 (Homo sapiens (Human)), Q9Y3R0; test: G' assay; also: key of the grades not given here
T15 chain: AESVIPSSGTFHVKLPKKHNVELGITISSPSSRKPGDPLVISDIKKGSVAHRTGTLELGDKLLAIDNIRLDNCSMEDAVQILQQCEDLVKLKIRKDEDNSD

[31] = target: T16, GST-MUPP1 PDZ domain 4 (Homo sapiens (Human)), O75970; test: G' assay; also: key of the grades not given here
T16 chain: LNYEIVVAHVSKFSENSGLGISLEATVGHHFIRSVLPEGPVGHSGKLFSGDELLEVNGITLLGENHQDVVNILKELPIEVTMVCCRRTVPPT

[32] = target: T17, GST-PTPL1 PDZ domain 5 (Homo sapiens (Human)), Q12923; test: G' assay; also: key of the grades not given here
T17 chain: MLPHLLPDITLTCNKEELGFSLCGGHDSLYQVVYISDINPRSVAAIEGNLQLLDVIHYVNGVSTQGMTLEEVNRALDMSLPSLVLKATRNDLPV

[33] = target: T18, GST-APXL-1 PDZ domain 1 (Homo sapiens (Human)), Q13796; test: G' assay; also: key of the grades not given here
T18 chain: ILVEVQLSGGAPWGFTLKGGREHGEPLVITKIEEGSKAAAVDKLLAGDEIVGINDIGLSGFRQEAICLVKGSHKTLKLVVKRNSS

[34] = target: T19, GST-KIAA0973 PDZ domain 1 (Homo sapiens (Human)), Q9Y2H9; test: G' assay; also: key of the grades not given here
T19 chain: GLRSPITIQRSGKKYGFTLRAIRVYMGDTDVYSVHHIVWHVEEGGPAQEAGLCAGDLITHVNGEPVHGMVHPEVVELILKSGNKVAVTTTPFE

[35] = target: T20, GST-MINT1 PDZ domain 2 (Mus musculus (Mouse)), B2RUJ5; test: G' assay; also: key of the grades not given here
T20 chain: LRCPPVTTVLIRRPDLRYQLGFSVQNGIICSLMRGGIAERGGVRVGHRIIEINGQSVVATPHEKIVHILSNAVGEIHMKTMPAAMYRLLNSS

[36] = target: T21, GST-DVL2 PDZ domain 1 (Homo sapiens (Human)), O14641; test: G' assay; also: key of the grades not given here
T21 chain: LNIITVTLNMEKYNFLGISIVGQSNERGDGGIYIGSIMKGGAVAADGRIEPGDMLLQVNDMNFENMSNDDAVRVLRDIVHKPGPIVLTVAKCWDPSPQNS

[37] = target: T22, GST-LU-1 PDZ domain 1 (Homo sapiens (Human)), Q76G19; test: G' assay; also: key of the grades not given here
T22 chain: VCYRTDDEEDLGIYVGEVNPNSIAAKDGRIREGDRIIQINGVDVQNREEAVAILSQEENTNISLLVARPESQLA

[38] = target: T23, GST-HEMBA 1003117 PDZ domain 1 (Homo sapiens (Human)), Q96JH8; test: G' assay; also: key of the grades not given here
T23 chain: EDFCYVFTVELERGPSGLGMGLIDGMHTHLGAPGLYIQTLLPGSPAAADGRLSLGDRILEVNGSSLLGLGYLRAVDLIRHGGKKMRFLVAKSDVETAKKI

[39] = target: T24, GST-MPP2 PDZ domain 1 (Homo sapiens (Human)), Q14168; test: G' assay; also: key of the grades not given here
T24 chain: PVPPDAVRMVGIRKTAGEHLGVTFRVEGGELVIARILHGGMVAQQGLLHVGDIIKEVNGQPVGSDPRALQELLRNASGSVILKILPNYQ

HHLVAQRDIRQFQLQHWLAI (modifications not checked) [noradrenaline transporter] gave a Kd [1] of 800 nM, a Kd [2] of 1000 nM and a Kd [3] of 500 nM. The Kd [4] was 800 nM, the Kd [5] was 600 nM and the Kd [6] was 600 nM. For the same binder, the Kd [7] was 400 nM, the Kd [8] was 1000 nM and the Kd [9] was 600 nM. For the same binder, the Kd [10] was 500 nM, the Kd [11] was 400 nM and the Kd [12] was 700 nM. It also gave a Kd [13] of 600 nM, a Classification [14] of 2 A450 class and a Classification [15] of 1 A450 class. It also gave a Classification [16] of 4 A450 class, a Classification [17] of 3 A450 class and a Classification [18] of 3 A450 class. For the same binder, the Classification [19] was 3 A450 class, the Classification [20] was 2 A450 class and the Classification [21] was 2 A450 class. The Classification [22] was 2 A450 class, the Classification [23] was 3 A450 class and the Classification [24] was 2 A450 class. It also gave a Classification [25] of 4 A450 class, a Classification [26] of 3 A450 class and a Classification [27] of 1 A450 class.

DFRPSFKHILFRRARRGFRQ (modifications not checked) [alpha-2C Adrenergic receptor] showed a Classification [28] of 5 A450 class, a Classification [29] of 5 A450 class and a Classification [30] of 1 A450 class. The Classification [31] was 3 A450 class, the Classification [32] was 3 A450 class and the Classification [33] was 3 A450 class. For the same binder, the Classification [34] was 3 A450 class, the Classification [35] was 3 A450 class and the Classification [36] was 3 A450 class. It also gave a Classification [37] of 4 A450 class.

LAVLAYSITLVMLWSIWQYA (modifications not checked) [Serotonin receptor 3a] showed a Classification [38] of 2 A450 class, a Classification [28] of 2 A450 class and a Classification [39] of 2 A450 class.
